Reference: US20240218057A1

What was measured:
Experiment in all cases: cell-based or functional assay
[1] = target: wildtype SARS-CoV-2 spike protein (pseudovirus) (SARS-CoV-2) (UniProt P0DTC2)
[2] = target: SARS-COV-2 spike protein (pSARS-COV-2-SΔ19) on HIV-1 pseudotyped particles (SARS-COV-2) (UniProt P0DTC2)
[3] = target: SARS-CoV-2 spike protein (wild type, pSARS-COV-2-SΔ19) on HIV-1 pseudotyped particles (SARS-CoV-2) (UniProt P0DTC2)
[4] = target: wildtype SARS-COV-2 spike protein on pseudotyped virus (SARS-CoV-2) (UniProt P0DTC2)

Row | Substance | IC50 neutralization [1] | IC90 neutralization [1] | IC50 [2] | IC90 [2] | Neutralization activity IC50 [3] | Neutralization activity IC90 [3] | neutralization IC50 [4] | neutralization IC90 [4]
1 | C144 (antibody) | 0.0037 µg/mL | 0.0159 µg/mL | 0.00286 µg/mL | 0.0405 µg/mL | 0.00286 µg/mL | 0.0405 µg/mL | 0.00374 µg/mL | 0.0159 µg/mL
2 | C121 (antibody) | – | – | – | – | – | – | 0.0051 µg/mL | 0.0198 µg/mL
3 | C135 (antibody) | – | – | – | – | – | – | 0.00859 µg/mL | 0.0406 µg/mL
